Blank lines part the entries; values can stand above or below the binder they belong to.
Columns and labels:
[1] = target: T1, human PD-L1 (human, UniProt Q9NZQ7 19-290); assay: co-immunoprecipitation, IIAdL1 cells expressing the human molecules, western blot
T1 construct: Expressed on IIAdL1 or DOdKO cells; also called hPD-L1

[2] = target: T1, human PD-L1; assay: flow cytometry; PD-1-EC staining of IIAdL1 cells (FIG. 29)
[3] = target: T1, human PD-L1; assay: as described for the mutants of Test 4; no separate experiment told for the double mutant
[4] = target: T1, human PD-L1; assay: flow cytometry; DOdKO-hPD-L1/hCD80 cells pretreated with 30 ug/mL TKMF5, stained with human PD-1-EC
[5] = target: T2, mouse PD-L1 (mouse, UniProt Q9EP73 19-290); assay: as described for the mutants of Test 3; no separate experiment told for the double mutant
T2 construct: Overexpressed on IIAdL1 cells or DOdKO cells; also called mPD-L1; CD274
T2 sequence (Q9EP73 19-290 limits assumed): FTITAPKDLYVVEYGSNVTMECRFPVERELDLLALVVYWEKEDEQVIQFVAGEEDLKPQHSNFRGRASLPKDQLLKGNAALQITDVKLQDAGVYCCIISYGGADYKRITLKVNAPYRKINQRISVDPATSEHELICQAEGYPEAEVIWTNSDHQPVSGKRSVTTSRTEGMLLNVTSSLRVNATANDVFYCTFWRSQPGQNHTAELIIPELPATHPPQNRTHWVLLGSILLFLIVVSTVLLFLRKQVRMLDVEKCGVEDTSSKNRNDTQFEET

[6] = target: T2, mouse PD-L1; assay: as described for the mutants of Test 3 (PD-1-EC staining of cells co-expressing PD-L1)
[7] = target: T3, mouse CD80 (mouse, UniProt Q00609 38-306); assay: flow cytometry, IIAdL1 cells expressing CD80 alone, soluble PD-1-EC
T3 construct: Overexpressed on IIAdL1 cells or DOdKO cells; also called mCD80
T3 sequence: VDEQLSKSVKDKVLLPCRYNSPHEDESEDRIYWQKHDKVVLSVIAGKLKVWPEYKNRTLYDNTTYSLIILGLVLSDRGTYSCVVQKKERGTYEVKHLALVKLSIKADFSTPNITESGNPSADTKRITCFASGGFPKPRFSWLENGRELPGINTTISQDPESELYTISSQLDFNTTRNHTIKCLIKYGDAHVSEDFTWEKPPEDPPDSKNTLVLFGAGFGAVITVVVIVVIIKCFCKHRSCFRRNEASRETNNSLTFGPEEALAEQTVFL

[8] = target: T2, mouse PD-L1; assay: flow cytometry; DOdKO-mPD-L1/mCD80 cells pretreated with 10 ug/ml TKMG48 or control IgG, stained with mouse PD-1-EC; (TKMG48 treated group-control group)/(control IgG group-control group)

T1 sequence (Q9NZQ7 19-290 limits assumed): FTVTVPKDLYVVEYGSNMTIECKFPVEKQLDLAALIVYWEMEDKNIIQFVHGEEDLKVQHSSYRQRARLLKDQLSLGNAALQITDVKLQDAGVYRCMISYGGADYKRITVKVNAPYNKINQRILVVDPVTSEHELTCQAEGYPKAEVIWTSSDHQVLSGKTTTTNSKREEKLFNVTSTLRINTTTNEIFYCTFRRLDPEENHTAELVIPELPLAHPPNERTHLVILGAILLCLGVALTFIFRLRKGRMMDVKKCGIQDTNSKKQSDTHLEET

binding result [6]: no binding
B7: mouse CD80L107E (ligand)
chain: VDEQLSKSVKDKVLLPCRYNSPHEDESEDRIYWQKHDKVVLSVIAGKLKVWPEYKNRTLYDNTTYSLIIEGLVLSDRGTYSCVVQKKERGTYEVKHLALVKLSIKADFSTPNITESGNPSADTKRITCFASGGFPKPRFSWLENGRELPGINTTISQDPESELYTISSQLDFNTTRNHTIKCLIKYGDAHVSEDFTWEKPPEDPPDSKNTLVLFGAGFGAVITVVVIVVIIKCFCKHRSCFRRNEASRETNNSLTFGPEEALAEQTVFL
notes: also called L107E mutant

binding result [6]: no binding
B8: mouse CD80 with the L96E mutation (ligand)
chain: VDEQLSKSVKDKVLLPCRYNSPHEDESEDRIYWQKHDKVVLSVIAGKLKVWPEYKNRTEYDNTTYSLIILGLVLSDRGTYSCVVQKKERGTYEVKHLALVKLSIKADFSTPNITESGNPSADTKRITCFASGGFPKPRFSWLENGRELPGINTTISQDPESELYTISSQLDFNTTRNHTIKCLIKYGDAHVSEDFTWEKPPEDPPDSKNTLVLFGAGFGAVITVVVIVVIIKCFCKHRSCFRRNEASRETNNSLTFGPEEALAEQTVFL
notes: also called CD80 L96E

binding result [7]: no binding
amount of binding (mean fluorescence intensity) after TKMG48 pretreatment relative to control IgG pretreatment [8]: ~10.1 times
B9: soluble mouse PD-1 extracellular region (PD-1-EC) protein (receptor)
chain: LEVPNGPWRSLTFYPAWLTVSEGANATFTCSLSNWSEDLMLNWNRLSPSNQTEKQAAFCNGLSQPVQDARFQIIQLPNRHDFHMNILDTRRNDSGIYLCGAISLHPKAKIEESPGAELVVTERILETSTRYPSPSPKPEGRFQDYKDDDDK
notes: domain: five-stranded coiled coil domain; Soluble chimeric protein from 293T or Plat-E culture supernatant; also called mouse PD-1-EC; mPD-1; not shown: five-stranded coiled coil domain of cartilage oligomer matrix protein (Terskikh et al. 1997), fused to the C-terminus

The remaining lines, values behind:

B1: human CD80 (ligand)
chain: VIHVTKEVKEVATLSCGHNVSVEELAQTRIYWQKEKKMVLTMMSGDMNIWPEYKNRTIFDITNNLSIVILALRPSDEGTYECVVLKYEKDAFKREHLAEVTLSVKADFPTPSISDFEIPTSNIRRIICSTSGGFPEPHLSWLENGEELNAINTTVSQDPETELYAVSSKLDFNMTTNHSFMCLIKYGHLRVNQTFNWNTTKQEHFPDNLLPSWAITLISVNGIFVICCLTYCFAPRCRERRRNERLRRESVRPV
notes: Expressed on IIAdL1, DOdKO or DOdPD cells; also called hCD80
binding result [1]: binds

B2: human CD80I92E (ligand)
chain: VIHVTKEVKEVATLSCGHNVSVEELAQTRIYWQKEKKMVLTMMSGDMNIWPEYKNRTEFDITNNLSIVILALRPSDEGTYECVVLKYEKDAFKREHLAEVTLSVKADFPTPSISDFEIPTSNIRRIICSTSGGFPEPHLSWLENGEELNAINTTVSQDPETELYAVSSKLDFNMTTNHSFMCLIKYGHLRVNQTFNWNTTKQEHFPDNLLPSWAITLISVNGIFVICCLTYCFAPRCRERRRNERLRRESVRPV
binding result [2]: no binding

B3: human CD80L104E mutant (ligand)
chain: VIHVTKEVKEVATLSCGHNVSVEELAQTRIYWQKEKKMVLTMMSGDMNIWPEYKNRTIFDITNNLSIVIEALRPSDEGTYECVVLKYEKDAFKREHLAEVTLSVKADFPTPSISDFEIPTSNIRRIICSTSGGFPEPHLSWLENGEELNAINTTVSQDPETELYAVSSKLDFNMTTNHSFMCLIKYGHLRVNQTFNWNTTKQEHFPDNLLPSWAITLISVNGIFVICCLTYCFAPRCRERRRNERLRRESVRPV
binding result [2]: no binding

B4: human CD80 mutant (having I92E and L104E mutations) lacking the ability to bind to human PD-L1 (ligand)
chain: VIHVTKEVKEVATLSCGHNVSVEELAQTRIYWQKEKKMVLTMMSGDMNIWPEYKNRTEFDITNNLSIVIEALRPSDEGTYECVVLKYEKDAFKREHLAEVTLSVKADFPTPSISDFEIPTSNIRRIICSTSGGFPEPHLSWLENGEELNAINTTVSQDPETELYAVSSKLDFNMTTNHSFMCLIKYGHLRVNQTFNWNTTKQEHFPDNLLPSWAITLISVNGIFVICCLTYCFAPRCRERRRNERLRRESVRPV
binding result [3]: no binding

B5: human PD-1-EC (receptor)
chain: LDSPDRPWNPPTFSPALLVVTEGDNATFTCSFSNTSESFVLNWYRMSPSNQTDKLAAFPEDRSQPGQDCRFRVTQLPNGRDFHMSVVRARRNDSGTYLCGAISLAPKAQIKESLRAELRVTERRAEVPTAHPSPSPRPAGQFQDYKDDDDK
notes: domain: five-stranded coiled coil domain; also called human PD-1 extracellular region soluble chimeric protein; hPD-1; not shown: five-stranded coiled coil domain of cartilage oligomer matrix protein (Terskikh et al. 1997), fused to the C-terminus
ratio of cells that bound to PD-1-EC [4]: ~50%

B6: mouse CD80 with the L96E and L107E mutations (ligand)
chain: VDEQLSKSVKDKVLLPCRYNSPHEDESEDRIYWQKHDKVVLSVIAGKLKVWPEYKNRTEYDNTTYSLIIEGLVLSDRGTYSCVVQKKERGTYEVKHLALVKLSIKADFSTPNITESGNPSADTKRITCFASGGFPKPRFSWLENGRELPGINTTISQDPESELYTISSQLDFNTTRNHTIKCLIKYGDAHVSEDFTWEKPPEDPPDSKNTLVLFGAGFGAVITVVVIVVIIKCFCKHRSCFRRNEASRETNNSLTFGPEEALAEQTVFL
binding result [5]: no binding

Source: patent publication US20260242482A1 (ONO PHARMACEUTICAL, published 2026)
